Data taken from paper PMC6736723.

Biological target: Scl1.41 on the surface of M41-type GAS cells (MGAS6183 wild type and Δscl1::scl1.41) (Streptococcus pyogenes (group A Streptococcus), M41-type strain MGAS6183)

recombinant tenascin-C fibronectin type III repeats 1-5 (rTnFn1-5) (domain or fragment)
reduction in GAS (WT M41) adherence to CAF-derived matrices after 30 min pre-incubation of the cells with rTnFn1-5, against untreated WT: 70%

recombinant tenascin-C fibronectin type III repeats 6-8 (rTnFn6-8) (domain or fragment)
reduction in GAS (WT M41) adherence to CAF-derived matrices after 30 min pre-incubation of the cells with rTnFn6-8, against untreated WT: 40%
